For 1 substance, fold reduction of affinity against wild-type IL-1β results are on record in article PMC4362373.

The target in the experiment is recombinant human IL-1RI Fc chimera (human) (UniProt P14778). Briefly: ELISA.
Chain of UniProt P14778 (P14778 18-336, change not shown): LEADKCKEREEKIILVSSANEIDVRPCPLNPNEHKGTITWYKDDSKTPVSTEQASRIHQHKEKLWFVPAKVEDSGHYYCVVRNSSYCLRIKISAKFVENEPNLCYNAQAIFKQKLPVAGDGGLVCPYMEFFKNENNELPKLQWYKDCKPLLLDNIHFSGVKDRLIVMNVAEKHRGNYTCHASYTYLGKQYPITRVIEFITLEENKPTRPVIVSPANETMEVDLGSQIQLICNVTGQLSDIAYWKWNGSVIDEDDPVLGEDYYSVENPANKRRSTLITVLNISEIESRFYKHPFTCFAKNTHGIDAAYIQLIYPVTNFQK

hIL-1b(D145K) (ligand): the fold reduction of affinity against wild-type IL-1β worked out at 3500 fold.
